Source: US20210355194A1 (TWIST BIOSCIENCE, published 2021)
Where a chain is given by its changes, count along the chain named.

B1: variant 5-67 (Fc fusion)
VHH: EVQLVESGGGLVQPGGSLRLSCAASGFNVNDYAMGWFRQAPGKEREFVAGITSSVGVTNYADSVKGRFTISADNSKNTAYLQMNSLKPEDTAVYYCAADIFFVNWGRGTLVTVSS
B2: variant 5-64 (Fc fusion)
VHH: EVQLVESGGGLVQPGGSLRLSCAASGTSISNRVMGWFRQAPGKERELVARIYTGGDTLYADSVKGRFTISADNSKNTAYLQMNSLKPEDTAVYYCAARKIYRSLSYYGDYDWGQGTLVTVSS
B3: variant 5-56 (Fc fusion)
VHH: EVQLVESGGGLVQPGGSLRLSCAASGRTFSSNMGWFRQAPGKEREFVARIFGGDRTLYADSVKGRFTISADNSKNTAYLQMNSLKPEDTAVYYCADINGDWGQGTLVTVSS
B4: variant 5-13 (Fc fusion)
VHH: EVQLVESGGGLVQPGGSLRLSCAASGFTFDYYTMGWFRQAPGKEREFVAAIRSSGGLFYADSVKGRFTISADNSKNTAYLQMNSLKPEDTAVYYCAAYLDGYSGSWGQGTLVTVSS
B5: variant 5-47 (Fc fusion)
VHH: EVQLVESGGGLVQPGGSLRLSCAASGFTFGSYDMGWFRQAPGKEREFVTAINWSGARTAYADSVKGRFTISADNSKNTAYLQMNSLKPEDTAVYYCAARSVYSYEYNWGQGTLVTVSS
B6: variant 5-49 (Fc fusion)
VHH: EVQLVESGGGLVQPGGSLRLSCAASGRTSTVNGMGWFRQAPGKEREFVASISQSGAATAYADSVKGRFTISADNSKNTAYLQMNSLKPEDTAVYYCAADRTYSYSSTGYYWGQGTLVTVSS
B7: variant 5-20 (Fc fusion)
VHH: EVQLVESGGGLVQPGGSLRLSCAASGRTIVPYTMGWFRQAPGKERELVAAISPSAFTEYADSVKGRFTISADNSKNTAYLQMNSLKPEDTAVYYCAARRWGYDWGQGTLVTVSS
notes: VHH-Fc
B8: variant 5-27 (Fc fusion)
VHH: EVQLVESGGGLVQPGGSLRLSCAASGRANSINWMGWFRQAPGKEREFVATITPGGNTNYADSVKGRFTISADNSKNTAYLQMNSLKPEDTAVYYCAAAAGSTWYGTLYEYDWGQGTLVTVSS
B9: variant 5-59 (Fc fusion)
VHH: EVQLVESGGGLVQPGGSLRLSCAASGLTFSLYRMCWFRQAPGKEREEVSCISNIDGSTYYADSVKGRFTISADNSKNTAYLQMNSLKPEDTAVYYCAADLLGDSDYEPSSGFGWGQGTLVTVSS
B10: variant 5-32 (Fc fusion)
VHH: EVQLVESGGGLVQPGGSLRLSCAASGFTPDNYAMGWFRQAPGKEREFVAALGWSGVTTYHYYADSVKGRFTISADNSKNTAYLQMNSLKPEDTAVYYCASDESDAANWGQGTLVTVSS
B11: variant 5-23 (Fc fusion)
VHH: EVQLVESGGGLVQPGGSLRLSCAASGSIFSIDVMGWFRQAPGKEREFVAAISWSGESTLYADSVKGRFTISADNSKNTAYLQMNSLKPEDTAVYYCAAFDGYSGSDWGQGTLVTVSS
B12: variant 5-3 (Fc fusion)
VHH: B11 VHH with A50G, E56D, S103T
B13: variant 5-66 (Fc fusion)
VHH: B11 VHH with S27N, I28T, S30T, D32N, S52N, S54N, E56G, S57T, S105I
B14: variant 5-15 (Fc fusion)
VHH: EVQLVESGGGLVQPGGSLRLSCAASGFTFDGAAMGWFRQAPGKEREFVATIRWTNSTDYADSVKGRFTISADNSKNTAYLQMNSLKPEDTAVYYCARGRYGIVERWGQGTLVTVSS
B15: variant 5-21 (Fc fusion)
VHH: EVQLVESGGGLVQPGGSLRLSCAASGGTFTTYHMGWFRQAPGKEREFVAHISTGGATNYADSVKGRFTISADNSKNTAYLQMNSLKPEDTAVYYCATFPAIVTDSDYDLGNDWGQGTLVTVSS
B16: variant 6-2 (Fc fusion)
VHH: EVQLVESGGGLVQPGGSLRLSCAASGFTMSSSWMGWFRQAPGKEREFVTVISGVGTSYADSVKGRFTISADNSKNTAYLQMNSLKPEDTAVYYCARGPDSSGYGFDYWGQGTLVTVSS
B17: variant 6-4 (Fc fusion)
VHH: EVQLVESGGGLVQPGGSLRLSCAASGFTRDYYTMGWFRQAPGKEREFVAAISRSGSLTSYADSVKGRFTISADNSKNTAYLQMNSLKPEDTAVYYCANLAYYDSSGYYDYWGQGTLVTVSS
B18: variant 6-1 (Fc fusion)
VHH: EVQLVESGGGLVQPGGSLRLSCAASGRTFGNYNMGWFRQAPGKEREFVATINSLGGTSYADSVKGRFTISADNSKNTAYLQMNSLKPEDTAVYYCARVDYYMDVWGQGTLVTVSS
B19: variant 5-42 (Fc fusion)
VHH: EVQLVESGGGLVQPGGSLRLSCAASGFTPDDYAMGWFRQAPGKEREFVASIGYSGRSNSYNYYADSVKGRFTISADNSKNTAYLQMNSLKPEDTAVYYCAIAHGSSTYNWGQGTLVTVSS
B20: variant 5-16 (Fc fusion)
VHH: EVQLVESGGGLVQPGGSLRLSCAASGRTHSIYPMGWFRQAPGKERELVAAIHSGGATVYADSVKGRFTISADNSKNTAYLQMNSLKPEDTAVYYCAARRWIPPGPIWGQGTLVTVSS
B21: variant 5-65 (Fc fusion)
VHH: EVQLVESGGGLVQPGGSLRLSCAASGNIDRLYAMGWFRQAPGKEREGVAAIDSDGSTDYADSVKGRFTISADNSKNTAYLQMNSLKPEDTAVYYCAALIDYGLGFPIEWGQGTLVTVSS
B22: variant 5-22 (Fc fusion)
VHH: EVQLVESGGGLVQPGGSLRLSCAASGFTFNVFAMGWFRQAPGKEREFVAAINWSDSRTDYADSVKGRFTISADNSKNTAYLQMNSLKPEDTAVYYCASGSDNRARELSRYEYVWGQGTLVTVSS
B23: variant 5-53 (Fc fusion)
VHH: EVQLVESGGGLVQPGGSLRLSCAASGLTVVPYAMGWFRQAPGKEREFVAAIRRSAVTNYADSVKGRFTIIADNSKNTAYLLMNSLKPEDTAVYYCAARRWGYHYWGQGTLVTVSS
B24: variant 5-35 (Fc fusion)
VHH: EVQLVESGGGLVQPGGSLRLSCAASGPTFSIYAMGWFRQAPGKERELVAGISWNGGSTNYADSVKGRFTISADNSKNTAYLQMNSLKPEDTAVYYCALRRRFGGQEWGQGTLVTVSS
B25: variant 6-5 (Fc fusion)
VHH: EVQLVESGGGLVQPGGSLRLSCAASGRTFTMGWFRQAPGKEREFVASTNSAGSTNYADSVNGRFTISADNSKNTAYLQMNSLKPEDTAVYYCTTVDQYFDYWGQGTLVTVSS
B26: variant 5-55 (Fc fusion)
VHH: EVQLVESGGGLVQPGGSLRLSCAASGIDVNRNAMGWFRQAPGKEREFVAAITWSGGWRYYADSVKGRFTISADNSKNTAYLQMNSLKPEDTAVYYCATTFGDAGIPDQYDFGWGQGTLVTVSS
B27: variant 5-1 (Fc fusion)
VHH: EVQLVESGGGLVQPGGSLRLSCAASGGTFSSIGMGWFRQAPGKEREFVAAISWDGGATAYADSVKGRFTISADNSKNTAYLQMNSLKPEDTAVYYCAKEDVGKPFDWGQGTLVTVSS
notes: VHH-Fc
B28: variant 5-28 (Fc fusion)
VHH: EVQLVESGGGLVQPGGSLRLSCAASGGTFSVFAMGWFRQVPGKERELVAEITAGGSTYYADSVKGRFTISADNSKNTAYLQMNSLKPEDTAVYYCAVDGPFGWGQGTLVTVSS
B29: variant 5-60 (Fc fusion)
VHH: EVQLVESGGGLVQPGGSLRLSCAASGRSFSSHRMGWFRQAPGKEREFVAAIMWSGSHRNYADSVKGRFTISADNSKNTAYLQMNSLKPEDTAVYYCAAIAYEEGVYRWDWGQGTLVTVSS
B30: variant 5-17 (Fc fusion)
VHH: EVQLVESGGGLVQPGGSLRLSCAASGPTFSIYAMGWFRQAPGKEREFVAGIRWSDVYTQYADSVKGRFTISADNSKNTAYLQMNSLKPEDTAVYYCALDIDYRDWGQGTLVTVSS
B31: variant 5-39 (Fc fusion)
VHH: B30 VHH with P27V, F29L, S30D, I31L, S54T, V56A, Q59E, L98V
B32: variant 5-63 (Fc fusion)
VHH: EVQLVESGGGLVQPGGSLRLSCAASGFSLDYYDMGWFRQAPGKEREFVAALGWSGGSTDYADSVKGRFTISADNSKNTAYLQMNSLKPEDTAVYYCAAGNGGRYGIVERWGQGTLVTVSS
B33: variant 5-37 (Fc fusion)
VHH: EVQLVESGGGLVQPGGSLRLSCAASGSTFSINAMGWFRQAPGKEREFVGGISRSGATTNYADSVKGRFTISADNSKNTAYLQMNSLKPEDTAVYYCAADGVPEYSDYASGPVWGQGTLVTVSS
notes: VHH-Fc
B34: variant 5-52 (Fc fusion)
VHH: EVQLVESGGGLVQPGGSLRLSCAASGEKFSDHWMGWFRQAPGKEREFVATITFSGARTAYADSVKGRFTISADNSKNTAYLQMNSLKPEDTAVYYCAALIKPSSTDRIFEEWGQGTLVTVSS
B35: variant 5-29 (Fc fusion)
VHH: EVQLVESGGGLVQPGGSLRLSCAASGFTFDDYPMGWFRQAPGKEREGVASVLRGGYTWYADSVKGRFTISADNSKNTAYLQMNSLKPEDTAVYYCAKDWATGLAWGQGTLVTVSS
B36: variant 5-68 (Fc fusion)
VHH: EVQLVESGGGLVQPGGSLRLSCAASGFTFDHYTMGWFRQAPGKEREFVAAISGSENVTSYADSVKGRFTISADNSKNTAYLQMNSLKPEDTAVYYCAAEPYIPVRTMRHMTFLTWGQGTLVTVSS

Biological target: CV S-protein construct 6 trimer TP31001F (SARS-CoV-2, UniProt P0DTC2 14-1208)
Assay: SPR

Row | Binder | Kd
1 | B1 | 1 nM
2 | B2 | 221 nM
3 | B3 | 2.8 nM
4 | B4 | 3.8 nM
5 | B5 | 0.7 nM
6 | B6 | 3.4 nM
7 | B7 | 1.1 nM
8 | B8 | 110 nM
9 | B9 | 6.4 nM
10 | B10 | 0.1 nM
11 | B11 | 4.2 nM
12 | B12 | 5.6 nM
13 | B13 | 98.9 nM
14 | B14 | 2.3 nM
15 | B15 | 10 nM
16 | B16 | 1.2 nM
17 | B17 | 0.5 nM
18 | B18 | 1.2 nM

Row | Binder | Kd
19 | B19 | 0.6 nM
20 | B20 | 1.9 nM
21 | B21 | 421 nM
22 | B22 | 7.2 nM
23 | B23 | 684 nM
24 | B24 | 16 nM
25 | B25 | 0.8 nM
26 | B26 | 0.6 nM
27 | B27 | 0.4 nM
28 | B28 | 1 nM
29 | B29 | 0.8 nM
30 | B30 | 18.9 nM
31 | B31 | 37.6 nM
32 | B32 | 0.4 nM
33 | B33 | 1.8 nM
34 | B34 | 0.9 nM
35 | B35 | 1 nM
36 | B36 | 4.8 nM
